How the values were obtained:
[1] = molecular target: PulD (Klebsiella pneumoniae HS11286) (UniProt P15644); assay: cryo-EM structure; outer membrane complex of the co-expressed and co-purified Pul_CDELMNS complex on thin carbon film; focused refinement, C15 symmetry, 4.3 Å overall; PulC HR domain (7-8 Å) and PulS (~7 Å) as rigid-body fitted homology models; top views from a purification without glutaraldehyde
[2] = molecular target: T1, PulE with C-terminal StrepII tag (Klebsiella pneumoniae HS11286, UniProt A0A0H3GRZ5 1-497); assay: SDS-PAGE densitometry of the co-purified complex; Pul_CDELMNS co-expressed and co-purified without glutaraldehyde, phenol extracted; fluorescent emission of Coomassie R250 and Sypro Ruby stained gels; six independent purifications; ratios standardised around PulE; conditions: both partners purified
T1 construct: PulE ATPase of the Klebsiella pneumoniae HS11286 type II secretion system; N1E, N2E and CTE domains; also called PulE ATPase; GspE; source: E. coli C43 (DE3) with pspA knockout, co-expressed (from the pul operon in pASK3c, or full-length pulE alone in pASK3c); DDM-solubilised membranes; purified as part of a complex (StrepTrap, Flag resin); not shown: StrepII, C-terminal, kept
T1 sequence: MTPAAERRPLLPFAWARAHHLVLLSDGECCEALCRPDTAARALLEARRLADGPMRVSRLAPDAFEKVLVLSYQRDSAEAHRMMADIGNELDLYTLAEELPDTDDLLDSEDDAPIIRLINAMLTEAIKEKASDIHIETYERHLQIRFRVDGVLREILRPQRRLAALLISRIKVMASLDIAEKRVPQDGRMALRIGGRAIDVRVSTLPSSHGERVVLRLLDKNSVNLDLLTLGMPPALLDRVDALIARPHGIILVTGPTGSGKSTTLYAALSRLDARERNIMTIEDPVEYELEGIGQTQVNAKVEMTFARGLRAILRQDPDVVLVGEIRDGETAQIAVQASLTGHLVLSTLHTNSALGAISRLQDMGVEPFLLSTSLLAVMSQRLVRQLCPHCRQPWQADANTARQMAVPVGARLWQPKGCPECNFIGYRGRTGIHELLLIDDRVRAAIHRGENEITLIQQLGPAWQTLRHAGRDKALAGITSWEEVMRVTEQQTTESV

[3] = molecular target: T2, PulE N1E domain (aa 1-108) with C-terminal StrepII tag (Klebsiella pneumoniae HS11286, UniProt A0A0H3GRZ5 1-108); assay: SDS-PAGE densitometry of the co-purified complex; Pul_(E-N1E/Lcyto) complex, two independent purifications, duplicate gels, Coomassie Blue R250 imaged at 680 nm; conditions: both partners purified
T2 construct: N1E domain of PulE, Klebsiella pneumoniae HS11286, aa 1-108; source: E. coli, co-expressed with Pul_(Lcyto) (pASK3c); not shown: StrepII, C-terminal, kept
T2 sequence: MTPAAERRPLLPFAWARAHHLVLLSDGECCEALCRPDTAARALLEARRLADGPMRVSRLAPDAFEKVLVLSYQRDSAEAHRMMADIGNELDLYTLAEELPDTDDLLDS

PulD (from UniProt P15644 28-660) (natural protein)
stoichiometry N [1]: 15

PulS with C-terminal Flag tag (from UniProt P20440 18-125) (natural protein)
stoichiometry N [1]: 1

B1: PulN (natural protein)
chain: MKANWIAGGLLLVLYLLWLTATAPARLLAPMLPPGVQVGQFSGSVWRGAAQPVYWHGERLERLAWSLTLAGWQVSLSDPRGVMGQARLWGLRDLRLQEGRLTAPASLLSRWLMSTMPVKAAGEVTFSLTEGRFSDGRCRHIIAGGAQWRQARLHSPVGSLELAQVNGTFRCTVDGAVALTLRQDSHQLSLSGQGTLSPDGRYLFRGTLQPRQGMPPLLALLVTRPTANNAPGPTPWQLQGKWLPQEQK
notes: PulN of the Klebsiella pneumoniae HS11286 type II secretion system; whole gene as part of the cloned operon pulC to pulO; source: E. coli C43 (DE3) with pspA knockout, co-expressed from the pul operon (pASK3c); DDM-solubilised membranes; purified as part of the complex (StrepTrap, Flag resin)
stoichiometry N [2]: 0.95 relative to PulE

B2: PulL (natural protein)
chain: MNKINASPQAMLIVRLAAAQAPLHWQLFAPGEPHHEASGRWPTDDASPFPALAEQYPAWVLIPASDCAFHSLNLPAGLRKPPLQVAPFLLEEQLADDVEATHFALLHRQQAQCEIVAVQRQKMRDWLARCESLSLQPLALTPDVLALPWQPPAWSAVQVDEQWLIRHQPWGGMAAENVWLTELLQSEAEEHVIDSYSPPPAAPGVWREQPAQTLLTLAARHPAAQKLSLLQGEFAVRRRSAQASWRPARYAALALALLAGANSVLDHRDLARQAEAAQQASRAFYHRWFPTEKKVINPRLQMQQHLQTLTRQAQHAPLVDRLSALQNILSETPGIRLRALSWDAAGNRLQLDIAAVTSRALEQFTQRAQPRFRVRPGDMITKPDGIEGQLTLEENDG
notes: PulL of the Klebsiella pneumoniae HS11286 type II secretion system; bitopic inner membrane protein with a cytoplasmic domain (aa 1-235) and a periplasmic domain; a tag may have been present there; also called GspL; source: DDM-solubilised membranes; purified as part of a complex
stoichiometry N [2]: 0.97 relative to PulE

B3: PulL cytoplasmic domain (aa 1-235) with C-terminal Flag tag (domain or fragment)
chain: MNKINASPQAMLIVRLAAAQAPLHWQLFAPGEPHHEASGRWPTDDASPFPALAEQYPAWVLIPASDCAFHSLNLPAGLRKPPLQVAPFLLEEQLADDVEATHFALLHRQQAQCEIVAVQRQKMRDWLARCESLSLQPLALTPDVLALPWQPPAWSAVQVDEQWLIRHQPWGGMAAENVWLTELLQSEAEEHVIDSYSPPPAAPGVWREQPAQTLLTLAARHPAAQKLSLLQGEFA
notes: cytoplasmic domain of PulL, Klebsiella pneumoniae HS11286, aa 1-235; source: E. coli, co-expressed (pCDF-duet); not shown: Flag, C-terminal, kept
stoichiometry N [3]: 1

B4: PulC (natural protein)
chain: MPVSVMRLTNINKGIIKLLPQIVTLIILITAIPQLAKLTWRVVFPVSPEDISALPLTMPPAADPELKNVRPAFTLFGLAVKNSPTPTDAASLNQVPVSSLKLRLAGLLASSNPARSIAIIEKGNQQVSLSTGDPLPGYDARIAAILPDRIIVNYQGRKEAILLFNDSRAPSPPPTAAGNPPLVKRLREQPQNILTYLSISPVLSGDKLLGYRLNPGKDASLFRQSGLQANDLAIALNGIDLRDQEQAQQALQNLADMTEITLTVEREGQRHDIAFALGDE
notes: whole gene as part of the cloned operon pulC to pulO; has an N-terminus in the inner membrane, an HR domain and a PDZ domain; Only the HR domain (homology model) is fitted in the outer membrane complex map; also called GspC; source: E. coli C43 (DE3) with pspA knockout, co-expressed from the pul operon (pASK3c); DDM-solubilised membranes; purified as part of the complex (StrepTrap, Flag resin)
stoichiometry N [2]: 2.13 relative to PulE

B5: PulM (natural protein)
chain: MANLLIWWRQRTPSEQRLLLGLTGLLAACAFWYGLWQPWRAREAQWRQTLVKEQASLRWMTEQAPRLQQLSQQPAPAAKEALTALVMREAASHGLTVIRLQPQGKRLQITLQPCAFQALIDWLDAPAMRGVNAISLSVTGQPSRPGWVTVNHLLLERDDEG
notes: PulM of the Klebsiella pneumoniae HS11286 type II secretion system; whole gene as part of the cloned operon; also called GspM; source: DDM-solubilised membranes; purified as part of a complex
stoichiometry N [2]: 0.99 relative to PulE
